{"source": "patent US20210138031A1", "about": "(TRUSTEES OF TUFTS COLLEGE, published 2021)", "molecules": {"B1": {"name": "Dual Terminator of Active Complement (DTAC) (other)", "chain": "GGDCGLPPDVPNAQPALEGRTSFPEDTVITYKCEESFVKIPGEKDSVICLKGSQWSDIEEFCNRSCEVPTRLNSASLKQPYITQNYFPVGTVVEYECRPGYRREPSLSPKLTCLQNLKWSTAVEFCKKKSCPNPGEIRNGQIDVPGGILFGATISFSCNTGYKLFGSTSSFCLISGSSVQWSDPLPECREIYCPAPPQIDNGIIQGERDHYGYRQSVTYACNKGFTMIGEHSIYCTVNNDEGEWSGPPPECRGKSLTSKVPPTVQKPTTVNVPTTEVSPTSQKTTTKTTTPNAQATRSTPVSRTTKHFHETTPNKGSGTTSGTTGGGGGLQCYNCPNPTADCKTAVNCSSDFDACLITKAGLQVYNKCWKFEHCNFNDVTTRLRENELTYYCCKKDLCNFNEQLE", "modifications": "glycosylated (about 76 kDa band observed)"}, "B2": {"name": "soluble terminator of activated complement (STAC) (other)", "chain": "LQCYNCPNPTADCKTAVNCSSDFDACLITKAGLQVYNKCWKFEHCNFNDVTTRLRENELTYYCCKKDLCNFNEQLEGGGGGCEEPPTFEAMELIGKPKPYYEIGERVDYKCKKGYFYIPPLATHTICDRNHTWLPVSDDACYRETCPYIRDPLNGQAVPANGTYEFGYQMHFICNEGYYLIGEEILYCELKGSVAIWSGKPPICEKVLCTPPPKIKNGKHTFSEVEVFEYLDAVTYSCDPAPGPDPFSLIGESTIYCGDNSVWSRAAPECKVVKCRFPVVENGKQISGFGKKFYYKATVMFECDKGFYLDGSDTIVCDSNSTWDPPVPKCLKVGGGGGGDCGLPPDVPNAQPALEGRTSFPEDTVITYKCEESFVKIPGEKDSVICLKGSQWSDIEEFCNRSCEVPTRLNSASLKQPYITQNYFPVGTVVEYECRPGYRREPSLSPKLTCLQNLKWSTAVEFCKKKSCPNPGEIRNGQIDVPGGILFGATISFSCNTGYKLFGSTSSFCLISGSSVQWSDPLPECREIYCPAPPQIDNGIIQGERDHYGYRQSVTYACNKGFTMIGEHSIYCTVNNDEGEWSGPPPECRGKSLTSKVPPTVQKPTTVNVPTTEVSPTSQKTTTKTTTPNAQATRSTPVSRTTKHFHETTPNKGSGTTSGTT"}, "B3": {"name": "Soluble Active Complement Terminator (SACT) (other)", "chain": "GCEEPPTFEAMELIGKPKPYYEIGERVDYKCKKGYFYIPPLATHTICDRNHTWLPVSDDACYRETCPYIRDPLNGQAVPANGTYEFGYQMHFICNEGYYLIGEEILYCELKGSVAIWSGKPPICEKVLCTPPPKIKNGKHTFSEVEVFEYLDAVTYSCDPAPGPDPFSLIGESTIYCGDNSVWSRAAPECKVVKCRFPVVENGKQISGFGKKFYYKATVMFECDKGFYLDGSDTIVCDSNSTWDPPVPKCLKVGGGGGGDCGLPPDVPNAQPALEGRTSFPEDTVITYKCEESFVKIPGEKDSVICLKGSQWSDIEEFCNRSCEVPTRLNSASLKQPYITQNYFPVGTVVEYECRPGYRREPSLSPKLTCLQNLKWSTAVEFCKKKSCPNPGEIRNGQIDVPGGILFGATISFSCNTGYKLFGSTSSFCLISGSSVQWSDPLPECREIYCPAPPQIDNGIIQGERDHYGYRQSVTYACNKGFTMIGEHSIYCTVNNDEGEWSGPPPECRGKSLTSKVPPTVQKPTTVNVPTTEVSPTSQKTTTKTTTPNAQATRSTPVSRTTKHFHETTPNKGSGTTSGTTGGGGGLQCYNCPNPTADCKTAVNCSSDFDACLITKAGLQVYNKCWKFEHCNFNDVTTRLRENELTYYCCKKDLCNFNEQLE", "modifications": "N- and O-linked glycosylation (about 110 kDa band observed)"}}, "key": {"[1]": {"target": "C9 (UniProt P02748 22-559)", "sequence (P02748 22-559 limits assumed)": "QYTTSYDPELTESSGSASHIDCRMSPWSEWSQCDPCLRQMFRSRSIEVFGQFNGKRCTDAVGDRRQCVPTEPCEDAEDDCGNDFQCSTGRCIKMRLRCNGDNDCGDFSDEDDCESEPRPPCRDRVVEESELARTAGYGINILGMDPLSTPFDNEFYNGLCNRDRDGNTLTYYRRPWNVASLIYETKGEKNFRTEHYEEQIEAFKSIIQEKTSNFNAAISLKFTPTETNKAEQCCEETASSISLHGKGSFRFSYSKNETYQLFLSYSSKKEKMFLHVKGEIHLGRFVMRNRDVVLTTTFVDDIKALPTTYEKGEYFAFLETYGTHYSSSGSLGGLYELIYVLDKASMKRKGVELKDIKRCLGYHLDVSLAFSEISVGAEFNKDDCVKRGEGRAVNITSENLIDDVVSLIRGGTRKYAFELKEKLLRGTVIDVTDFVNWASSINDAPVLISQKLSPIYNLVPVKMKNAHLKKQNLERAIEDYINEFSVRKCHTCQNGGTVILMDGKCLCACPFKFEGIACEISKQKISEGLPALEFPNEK", "test": "cell-based or functional assay"}, "[2]": {"target": "C3b (human, UniProt P01024 749-1663; P01024 23-667)", "sequence (P01024 749-1663 limits assumed, chain 1 of 2)": "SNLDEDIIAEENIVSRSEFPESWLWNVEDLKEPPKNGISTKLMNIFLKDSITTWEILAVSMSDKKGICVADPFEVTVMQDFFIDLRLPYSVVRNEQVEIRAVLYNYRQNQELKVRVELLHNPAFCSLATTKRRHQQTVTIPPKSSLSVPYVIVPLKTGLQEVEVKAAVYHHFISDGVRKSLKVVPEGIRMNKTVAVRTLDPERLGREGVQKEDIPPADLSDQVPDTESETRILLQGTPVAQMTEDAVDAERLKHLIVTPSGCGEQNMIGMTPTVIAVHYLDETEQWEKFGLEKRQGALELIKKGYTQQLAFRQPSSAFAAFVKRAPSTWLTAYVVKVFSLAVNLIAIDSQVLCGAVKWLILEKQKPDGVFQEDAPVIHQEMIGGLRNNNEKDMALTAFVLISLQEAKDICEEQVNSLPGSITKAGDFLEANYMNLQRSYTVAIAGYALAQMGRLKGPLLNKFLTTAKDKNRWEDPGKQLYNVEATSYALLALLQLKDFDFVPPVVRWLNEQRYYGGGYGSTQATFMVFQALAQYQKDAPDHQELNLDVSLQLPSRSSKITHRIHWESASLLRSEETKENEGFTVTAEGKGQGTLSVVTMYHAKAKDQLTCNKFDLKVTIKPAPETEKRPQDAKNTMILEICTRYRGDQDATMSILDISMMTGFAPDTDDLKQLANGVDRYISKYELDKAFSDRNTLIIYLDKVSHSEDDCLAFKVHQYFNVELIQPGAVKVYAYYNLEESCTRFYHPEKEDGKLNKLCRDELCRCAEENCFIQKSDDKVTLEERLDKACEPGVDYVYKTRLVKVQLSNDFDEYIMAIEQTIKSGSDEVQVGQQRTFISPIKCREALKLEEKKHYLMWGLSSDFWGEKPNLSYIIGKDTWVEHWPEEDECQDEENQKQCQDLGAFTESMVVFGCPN", "sequence (P01024 23-667 limits assumed, chain 2 of 2)": "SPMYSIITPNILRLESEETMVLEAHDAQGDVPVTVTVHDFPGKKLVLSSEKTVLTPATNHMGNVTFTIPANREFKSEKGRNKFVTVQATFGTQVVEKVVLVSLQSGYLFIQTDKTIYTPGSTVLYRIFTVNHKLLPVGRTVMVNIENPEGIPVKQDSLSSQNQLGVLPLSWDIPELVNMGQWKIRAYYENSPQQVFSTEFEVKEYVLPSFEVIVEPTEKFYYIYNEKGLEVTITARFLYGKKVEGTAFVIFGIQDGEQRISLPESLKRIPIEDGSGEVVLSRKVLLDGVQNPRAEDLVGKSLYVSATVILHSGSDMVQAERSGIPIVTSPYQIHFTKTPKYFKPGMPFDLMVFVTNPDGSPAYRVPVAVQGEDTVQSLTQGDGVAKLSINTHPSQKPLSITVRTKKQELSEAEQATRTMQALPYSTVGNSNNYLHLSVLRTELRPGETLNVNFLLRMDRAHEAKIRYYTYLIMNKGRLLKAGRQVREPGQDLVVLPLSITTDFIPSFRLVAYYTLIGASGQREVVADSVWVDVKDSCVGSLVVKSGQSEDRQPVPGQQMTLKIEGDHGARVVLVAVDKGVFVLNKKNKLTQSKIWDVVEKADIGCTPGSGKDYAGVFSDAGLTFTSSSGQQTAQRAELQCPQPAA", "test": "cell-based or functional assay"}}, "data": [{"molecule": "sCD59 (soluble CD59, positive control) (from UniProt P13987 26-102)", "values": [{"measurement": "reduction in lysis of sheep erythrocytes carrying C5b-8 after addition of C9, compared to GFP media containing C9", "setting": "[1]", "value": 21, "unit": "%"}]}, {"molecule": "B1", "values": [{"measurement": "reduction of release of hemoglobin from sheep erythrocytes carrying C5b-8 after addition of C9, relative to media from pGFP-transfected cells", "setting": "[1]", "value": 34.8, "unit": "%"}]}, {"molecule": "B2", "values": [{"measurement": "reduction in C3b α′ chain signal intensity in the presence of Factor I, relative to media from pGFP transfected cells (quantitative western blot)", "setting": "[2]", "value": 34.3, "unit": "%"}]}, {"molecule": "B3", "values": [{"measurement": "reduction of release of hemoglobin from sheep erythrocytes carrying C5b-8 after addition of C9, relative to media from pGFP-transfected cells", "setting": "[1]", "value": 29.9, "unit": "%"}]}]}
